Measured values from IntAct's records for PubMed 31243363.

B1: Phospholipid-transporting ATPase DRS2 (Saccharomyces cerevisiae), P39524 (parent)
chain: MNDDRETPPKRKPGEDDTLFDIDFLDDTTSHSGSRSKVTNSHANANYIPPSHVLPEETIDLDADDDNIENDVHENLFMSNNHDDQTSWNANRFDSDAYQPQSLRAVKPPGLFARFGNGLKNAFTFKRKKGPESFEMNHYNAVTNNELDDNYLDSRNKFNIKILFNRYILRKNVGDAEGNGEPRVIHINDSLANSSFGYSDNHISTTKYNFATFLPKFLFQEFSKYANLFFLCTSAIQQVPHVSPTNRYTTIGTLLVVLIVSAMKECIEDIKRANSDKELNNSTAEIFSEAHDDFVEKRWIDIRVGDIIRVKSEEPIPADTIILSSSEPEGLCYIETANLDGETNLKIKQSRVETAKFIDVKTLKNMNGKVVSEQPNSSLYTYEGTMTLNDRQIPLSPDQMILRGATLRNTAWIFGLVIFTGHETKLLRNATATPIKRTAVEKIINRQIIALFTVLIVLILISSIGNVIMSTADAKHLSYLYLEGTNKAGLFFKDFLTFWILFSNLVPISLFVTVELIKYYQAFMIGSDLDLYYEKTDTPTVVRTSSLVEELGQIEYIFSDKTGTLTRNIMEFKSCSIAGHCYIDKIPEDKTATVEDGIEVGYRKFDDLKKKLNDPSDEDSPIINDFLTLLATCHTVIPEFQSDGSIKYQAASPDEGALVQGGADLGYKFIIRKPNSVTVLLEETGEEKEYQLLNICEFNSTRKRMSAIFRFPDGSIKLFCKGADTVILERLDDEANQYVEATMRHLEDYASEGLRTLCLAMRDISEGEYEEWNSIYNEAATTLDNRAEKLDEAANLIEKNLILIGATAIEDKLQDGVPETIHTLQEAGIKIWVLTGDRQETAINIGMSCRLLSEDMNLLIINEETRDDTERNLLEKINALNEHQLSTHDMNTLALVIDGKSLGFALEPELEDYLLTVAKLCKAVICCRVSPLQKALVVKMVKRKSSSLLLAIGDGANDVSMIQAAHVGVGISGMEGMQAARSADIAVGQFKFLKKLLLVHGSWSYQRISVAILYSFYKNTALYMTQFWYVFANAFSGQSIMESWTMSFYNLFFTVWPPFVIGVFDQFVSSRLLERYPQLYKLGQKGQFFSVYIFWGWIINGFFHSAIVFIGTILIYRYGFALNMHGELADHWSWGVTVYTTSVIIVLGKAALVTNQWTKFTLIAIPGSLLFWLIFFPIYASIFPHANISREYYGVVKHTYGSGVFWLTLIVLPIFALVRDFLWKYYKRMYEPETYHVIQEMQKYNISDSRPHVQQFQNAIRKVRQVQRMKKQRGFAFSQAEEGGQEKIVRMYDTTQKRGKYGELQDASANPFNDNNGLGSNDFESAEPFIENPFADGNQNSNRFSSSRDDISFDI
partner: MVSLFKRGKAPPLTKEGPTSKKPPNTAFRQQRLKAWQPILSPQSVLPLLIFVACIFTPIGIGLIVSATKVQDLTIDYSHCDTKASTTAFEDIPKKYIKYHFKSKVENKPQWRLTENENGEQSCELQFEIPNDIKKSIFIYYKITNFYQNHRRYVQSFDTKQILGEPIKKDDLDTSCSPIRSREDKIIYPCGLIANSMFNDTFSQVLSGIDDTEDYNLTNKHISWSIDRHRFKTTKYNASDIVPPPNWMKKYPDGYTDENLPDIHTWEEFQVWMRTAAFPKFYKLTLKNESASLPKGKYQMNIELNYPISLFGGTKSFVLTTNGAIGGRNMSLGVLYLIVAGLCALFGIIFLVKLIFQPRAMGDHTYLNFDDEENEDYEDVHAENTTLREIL

Variants of: B1
Settings: with cdc50_yeast CDC50, P25656

Row | Variant | effect of a mutation on the interaction
1 | H1236A | with no effect
2 | Y1235A | with no effect
3 | Y1235F | with no effect
